# Experimental data from US20250319180A1 (BLUEFIN BIOMEDICINE, published 2025).
# T1: human LY6H, endogenous on cancer cell lines (H446, DMS79, H526, MOLT3, KE-37) (human, UniProt O94772 26-115)
# T1 construct: Endogenous protein on human SCLC and T-ALL cell lines
# T1 sequence (looked up): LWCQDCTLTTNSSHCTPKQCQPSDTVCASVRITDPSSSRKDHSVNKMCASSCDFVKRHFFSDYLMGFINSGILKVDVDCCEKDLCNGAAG
# T2: recombinant human LY6H-ECD (C-terminal histidine tag) (human, UniProt O94772 26-115)
# T2 construct: The ectodomain was cloned by PCR with a non-native signal peptide and a C-terminal histidine tag; also called recombinant LY6H; hLY6H-ECD; not shown: C-terminal histidine tag
# T2 sequence (looked up): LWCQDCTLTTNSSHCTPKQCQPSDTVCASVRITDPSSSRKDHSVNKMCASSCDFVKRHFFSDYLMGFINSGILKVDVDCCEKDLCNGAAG
# T3: Macaca fascicularis LY6H expressed on 293T cells (plasmid BBP 492/598, M1-P140 plus Myc-DDK) (Macaca fascicularis, UniProt Q4R5M8 26-115)
# T3 construct: Full construct as encoded; also called monkey LY6H; not shown: Myc-DDK tag at the C-terminus
# T3 sequence: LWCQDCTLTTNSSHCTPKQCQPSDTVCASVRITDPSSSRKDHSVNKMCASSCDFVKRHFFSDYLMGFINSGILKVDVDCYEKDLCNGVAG
# Legend:
# [1] = target: T1, human LY6H, endogenous on cancer cell …; assay: flow cytometry, antibody titrated 0.1-100 nM on H526 cells, MFI; column H526_EC50 (nM); curve has no plateau at 100 nM
# Description: (§1) The assay uses 3-5 fold dilutions (from 100 nM to 0.1 nM) of antibody of a stock antibody concentration (100 nM) in binding buffer. Serial diluted antibodies were incubated with live cells on ice for 30 minutes, after a brief wash, cells were incubated with Alexa Fluro® 488-conjugated anti-human IgG secondary antibody @1:100, or 15 μg/ml (709-546-149, Jackson ImmunoResearch). Acquisition of the MFI (Median Fluorescent Intensity) was performed on a MACSQuant® Flow Cytometers (Miltenyi Biotec). EC₅₀ was calculated using Dose-response EC₅₀ shift by global fitting from GraphPad Prism.
# (§2) An estimate of affinity is interpreted from one-half the concentration at which antibody binding first achieves saturation.
# [2] = target: T1, human LY6H, endogenous on cancer cell …; assay: flow cytometry, antibody titrated 0.1-100 nM on DMS79 cells, MFI; upper panel and table, column DMS79_EC50 (nM)
# Description: as §1, §2
# [3] = target: T1, human LY6H, endogenous on cancer cell …; assay: flow cytometry, antibody titrated 0.1-100 nM on H446 cells, MFI; column H446_EC50 (nM)
# Description: as §1, §2
# [4] = target: T1, human LY6H, endogenous on cancer cell …; assay: flow cytometry, antibody titrated 0.1-100 nM on MOLT3 cells, MFI; upper panel and table, column MOLT3_EC50 (nM)
# Description: as §1, §2
# [5] = target: T1, human LY6H, endogenous on cancer cell …; assay: flow cytometry, antibody titrated 0.1-100 nM on H526 cells, MFI; column H526_EC50 (nM); value lies above the highest concentration tested, curve has no plateau
# Description: as §1, §2
# [6] = target: T1, human LY6H, endogenous on cancer cell …; assay: flow cytometry, antibody titrated 0.1-100 nM on DMS79 cells, MFI; lower panel and table, column DMS79_EC50 (nM)
# Description: as §1, §2
# [7] = target: T1, human LY6H, endogenous on cancer cell …; assay: flow cytometry, antibody titrated 0.1-100 nM on MOLT3 cells, MFI; lower panel and table, column MOLT3_EC50 (nM)
# Description: as §1, §2
# [8] = target: T2, recombinant human LY6H-ECD (C-terminal …); assay: Octet Red BLI, antibody on Protein A biosensor, recombinant human LY6H in solution
# Description: (§3) Affinity: The affinity of antibodies to various recombinant LY6H protein was determined on an Octet Red™ instrument. After loading reagents into a 96-well plate, the Octet Red with Protein A-conjugated biosensors was programmed as follows: 30 seconds for baseline #1; 120 seconds to immobilize the antibody; 30 seconds for baseline #2; 300 seconds for association of antibody to recombinant LY6H; and 300-600 seconds for dissociation of recombinant LY6H from the antibody.
# [9] = target: T3, Macaca fascicularis LY6H expressed on …; assay: flow cytometry on 293 cells expressing Macaca fascicularis LY6H (293-neo-cyno LY6H); antibody 1 ug/ml per paragraph 484; solid histogram = hIgG1 control [cont.]
# Description: Staining for flow cytometry was performed in 1× cold PBS with 0.5% BSA.
# [10] = target: T1, human LY6H, endogenous on cancer cell …; assay: flow cytometry, antibody titrated 0.1-100 nM on H526 cells, MFI; column H526_EC50 (nM)
# Description: as §1, §2
# [11] = target: T3, Macaca fascicularis LY6H expressed on …; assay: on-cell affinity by flow cytometry: unconjugated 12G7 (0.05-100 nM) competes with 1 nM PE-conjugated 12G7 on 293T cells expressing Macaca fascicularis LY6H (per legend paragraph 131); table row 293T-mmLY6H
# Description: (§4) Serial diluted antibodies were incubated with 293 cells expressing either human or Macaca fascicularis on ice for 4 hours, after a brief wash. Acquisition of the MFI (Median Fluorescent Intensity) was performed on a MACSQuant® Flow Cytometers (Miltenyi Biotec). On cell affinity (Kd) was calculated using dose-response EC50 shift by global fitting from GraphPad Prism™.
# as §4, with “live” for “293”, “cells” for “cells expressing either human or Macaca fascicularis”, “Dose-response EC₅₀” for “dose-response EC50”
# [12] = target: T2, recombinant human LY6H-ECD (C-terminal …); assay: Octet (bio-layer interferometry), table row Octet; antigen not named on the sheet, recombinant human LY6H per paragraph 455 and Table 8 (Table 8 prints 33 for 1F8)
# Description: as §3
# [13] = target: T3, Macaca fascicularis LY6H expressed on …; assay: on-cell affinity by flow cytometry: unconjugated 1F8 (0.05-100 nM) competes with 1 nM PE-conjugated 1F8 on 293T cells expressing Macaca fascicularis LY6H (per legend paragraph 131); table row 293T-mmLY6H
# Description: as §4
# as §4, with “live” for “293”, “cells” for “cells expressing either human or Macaca fascicularis”, “Dose-response EC₅₀” for “dose-response EC50”
binder,measurement,setting,value
"23F3 (antibody, V domains shown, also called 23F3_19B2) VH: QVQLQESGPGLVKPSGTLSLTCAVSGGSISSSNWWSWVRQPPGKGLEWIGEIYHSGSTNYNPSLKSRVTISVDKSKNQFSLKLSSVTAADTAVYYCARVDILTGGNFDYWGQGTLVTVSS VL: not shown",EC50,[1],73.5 nM
same,EC50,[2],17.8 nM
same,EC50,[3],2.3 nM
same,EC50,[4],5.4 nM
"22A5_19A5 (antibody, V domains shown, human anti-LY6H antibody) VH: QVQLVESGGGVVQPGRSLRLSCAASGFTFSSYGMHWVRQAPGKGLEWVAVIWYDGSNKYYADSVKGRFTISRDNSKNTLYLQMNSLRAEDTAVYYCARDLWFGESRGGMDVWGQGTTVTVSS VL: not shown",EC50,[5],122 nM
"6D11 (antibody, V domains shown, Recombinant antibody made in CHO cells; also called 6D11_25D6) VH: QVQLQQWGAGLFKPSETLSLTCAVYGGSFSGSLWSWIRQPPGKGLEWIGEINHSGSTNYTPSLKSRVTISVDTSKNQFSLKLTSVTAADTAVYYCARGRHIVVVTAIHSPFDYWGQGTLVTVSS VL: DIQMTQSPSSLSASVGDRVTITCRASQGISNYLAWYQQKPGKVPKLLIFAASTLQSGVPSRFSGSGSGTDFTLTISSLQPEDVATYYCQKYNSAPRTFGQGTKLEIK",EC50,[6],1.3 nM
same,EC50,[7],0.6 nM
same,Kd,[8],22 nM
same,binding result,[9],binds
"12G7 (antibody, V domains shown, Recombinant antibody from H2L2 mice (human variable regions), made in CHO cells, purified on Protein A and detected with anti-human IgG; also called 12G7_19A2; anti-LY6H antibody (12G7)) VH: QVQLQQWGAGLLKPSETLSLTCAVYGGSFSGYYWSWIRQPPGKGLEWIGEINHSGSTYYNPSLKSRVTMSVDTSKNQFSLKLSSVTAADTAVYYCAKRWELGAFDIWGQGTMVTVSS VL: DIQMTQSPSSLSASVGDRVTITCRASQGISNYLAWYQQKPGKVPKLLIYAASTLQSGVPSRFSGSGSGTDFTLTISSLQPEDVATYYCQKYNSAPRTFGQGTKLEIK",EC50,[6],1.9 nM
same,EC50,[2],2.4 nM
same,EC50,[10],1.9 nM
same,EC50,[7],0.8 nM
same,EC50,[3],3 nM
same,Kd,[8],4 nM
same,Kd,[11],14.5 nM
same,EC50,[4],0.7 nM
"10B10 (antibody, V domains shown, also called 10B10_25A1) VH: QVQLQQWGAGLLKPSETLSLTCAVYGGSFSGYYWHWIRQPPGKGLEWIGEINHSESTKYNPSLKSRVTISVDTSKNQFSLKLSSVTGADTAVYYCARGQHIVVVTDSLGDYWGQGTLVTVSS VL: DIQMTQSPSSLSASVGDRVTITCRASQGISNYLAWYQQKPGKVPKLLIYAASTLQSGVPSRFSGSGSGTDFTLTISSLQPEDVATYYCQKYNSAPRTFGQGTKLEIK",EC50,[6],2 nM
same,EC50,[7],0.7 nM
same,Kd,[8],47 nM
"10B10-S54A (antibody, V domains shown) VH: QVQLQQWGAGLLKPSETLSLTCAVYGGSFSGYYWHWIRQPPGKGLEWIGEINHAESTKYNPSLKSRVTISVDTSKNQFSLKLSSVTGADTAVYYCARGQHIVVVTDSLGDYWGQGTLVTVSS VL: DIQMTQSPSSLSASVGDRVTITCRASQGISNYLAWYQQKPGKVPKLLIYAASTLQSGVPSRFSGSGSGTDFTLTISSLQPEDVATYYCQKYNSAPRTFGQGTKLEIK",Kd,[8],42 nM
"12G7-S54A (antibody, V domains shown) VH: QVQLQQWGAGLLKPSETLSLTCAVYGGSFSGYYWSWIRQPPGKGLEWIGEINHAGSTYYNPSLKSRVTMSVDTSKNQFSLKLSSVTAADTAVYYCAKRWELGAFDIWGQGTMVTVSS VL: DIQMTQSPSSLSASVGDRVTITCRASQGISNYLAWYQQKPGKVPKLLIYAASTLQSGVPSRFSGSGSGTDFTLTISSLQPEDVATYYCQKYNSAPRTFGQGTKLEIK",Kd,[8],4 nM
"6D11-41B4 (antibody, V domains shown) VH: QVQLQQWGAGLFKPSETLSLTCAVYGGSFSGSLWSWIRQPPGKGLEWIGEINHAGSTQYTPSLKSRVTISVDTSKNQFSLKLTSVTAADTAVYYCARGRHIVVVTAIHSPFDYWGQGTLVTVSS VL: DIQMTQSPSSLSASVGDRVTITCRASQGISNYLAWYQQKPGKVPKLLIFAASTLQSGVPSRFSGSGSGTDFTLTISSLQPEDVATYYCQKYNSAPRTFGQGTKLEIK",Kd,[8],25 nM
"11D9 (antibody, V domains shown, also called 11D9_19D5) VH: QVQLQESGPGLVKPSGTLSLTCTVSGGSISSSSWWSWVRLPPGKGLEWIGEIYHSGSTNYNPSLKSRVTISVDKSKNQFSLKLSSVTAADTAVYYCGGVRGVVMAFDIWGQGTMVTVSS VL: not shown",EC50,[1],13.2 nM
same,EC50,[2],2.2 nM
same,EC50,[3],2.6 nM
same,Kd,[8],31 nM
same,EC50,[4],1.4 nM
"2B11 (antibody, V domains shown, also called 2B11_25D1) VH: QVQLVESGGGVVQPGRSLRLSCAASGFTFSNYGMHWVRQAPGKGLEWVAVIWYDGSNKYYADSVKGRFTISRDNSKNTLYLQMNSLRTEDTAVYYCARSIVVVTATLDYWGQGTLVTVSS VL: not shown",EC50,[6],3.4 nM
same,EC50,[7],3.9 nM
"34H6 (antibody, V domains shown, also called 34H6_20A1) VH: QVQLVESGGGVVQPGRSLRLSCAASGFTFSSYGMHWVRQAPGKGLEWVAVIWYDGSNKYYADSVKGRFTISRDNSKNTLYLQMNSLRAEDTAVYYCARSIVVVTGFGDYWGQGTLVTVSS VL: not shown",EC50,[2],0.9 nM
same,EC50,[10],2.9 nM
same,EC50,[3],2.4 nM
same,EC50,[4],0.7 nM
"1F8 (antibody, V domains shown, also called 1F8_25B6; IF8) VH: QVQLVESGGGVVQPGRSLRLSCAASGFTFSNYGMHWVRQAPGKGLEWVAVIWYDGSYKYYADSVKGRFTISRDNSKNTLYLQMNSLRTEDTAVYYCARSIVVVTATLDYWGQGTLVTVSS VL: not shown",EC50,[6],3.3 nM
same,Kd,[12],31 nM
same,EC50,[7],2.7 nM
same,Kd,[13],21 nM
same,Kd,[8],33 nM
